Data reported in US20030198640A1 (Human Genome Sciences, published 2003).

Legend:
Assay in all cases: flow cytometry on transiently transfected cells
[1] = biological target: T1, RANK on transiently transfected cells (UniProt Q9Y6Q6 30-616, limits assumed)
T1 construct: whole, on cells
T1 sequence (looked up): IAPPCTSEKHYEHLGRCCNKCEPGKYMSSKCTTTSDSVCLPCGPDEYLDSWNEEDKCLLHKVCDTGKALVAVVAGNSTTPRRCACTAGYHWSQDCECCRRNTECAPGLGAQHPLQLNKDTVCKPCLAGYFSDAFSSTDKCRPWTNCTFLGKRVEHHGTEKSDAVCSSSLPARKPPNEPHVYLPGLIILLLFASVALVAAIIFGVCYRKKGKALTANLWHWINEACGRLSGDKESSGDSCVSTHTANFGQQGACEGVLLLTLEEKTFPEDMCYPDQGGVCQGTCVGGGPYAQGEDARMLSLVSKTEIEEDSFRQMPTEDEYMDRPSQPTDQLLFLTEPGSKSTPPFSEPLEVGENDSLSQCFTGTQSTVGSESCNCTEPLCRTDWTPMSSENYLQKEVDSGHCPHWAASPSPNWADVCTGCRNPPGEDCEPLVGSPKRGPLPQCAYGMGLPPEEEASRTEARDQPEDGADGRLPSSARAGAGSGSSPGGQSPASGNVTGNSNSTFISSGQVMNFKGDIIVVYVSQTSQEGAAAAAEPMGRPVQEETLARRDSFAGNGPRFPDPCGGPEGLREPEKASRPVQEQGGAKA
Experimental: (§1) One million cells, in 0.1 ml of FACS buffer (PBS, 0.1% BSA, 0.1% NaN₃), were incubated with 0.1-1 microgram of protein or antibody at RT for 15 min. The cells were washed with 3 ml of FACS buffer, reacted with biotinylated primary antibody, and stained with PE-conjugated secondary antibody at RT for 15 min. Cells were then washed again, resuspended in 0.5 microgram/ml of propidium iodide, and live cells were gated and analyzed on a FACScan using the CellQuest software (BD Biosciences).

[2] = biological target: T2, BCMA on transiently transfected cells (UniProt Q02223 1-184, limits assumed)
T2 construct: whole, on cells
T2 sequence (looked up): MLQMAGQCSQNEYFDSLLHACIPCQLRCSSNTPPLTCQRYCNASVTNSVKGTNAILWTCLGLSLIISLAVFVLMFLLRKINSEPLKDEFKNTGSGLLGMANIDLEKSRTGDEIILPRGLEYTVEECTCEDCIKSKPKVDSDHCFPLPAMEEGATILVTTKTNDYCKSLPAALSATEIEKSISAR
Experimental: as §1

[3] = biological target: T3, DcR1 on transiently transfected cells (UniProt O14798 26-236, limits assumed)
T3 construct: whole, on cells
T3 sequence (looked up): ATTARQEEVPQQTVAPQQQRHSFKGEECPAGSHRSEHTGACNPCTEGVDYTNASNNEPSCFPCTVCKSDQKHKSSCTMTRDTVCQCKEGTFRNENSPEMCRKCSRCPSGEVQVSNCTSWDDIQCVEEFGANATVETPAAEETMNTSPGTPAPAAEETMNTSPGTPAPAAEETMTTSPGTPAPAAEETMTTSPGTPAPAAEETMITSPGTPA
Experimental: as §1

[4] = biological target: T4, CD30 on transiently transfected cells (UniProt P28908 19-595, limits assumed)
T4 construct: whole, on cells
T4 sequence (looked up): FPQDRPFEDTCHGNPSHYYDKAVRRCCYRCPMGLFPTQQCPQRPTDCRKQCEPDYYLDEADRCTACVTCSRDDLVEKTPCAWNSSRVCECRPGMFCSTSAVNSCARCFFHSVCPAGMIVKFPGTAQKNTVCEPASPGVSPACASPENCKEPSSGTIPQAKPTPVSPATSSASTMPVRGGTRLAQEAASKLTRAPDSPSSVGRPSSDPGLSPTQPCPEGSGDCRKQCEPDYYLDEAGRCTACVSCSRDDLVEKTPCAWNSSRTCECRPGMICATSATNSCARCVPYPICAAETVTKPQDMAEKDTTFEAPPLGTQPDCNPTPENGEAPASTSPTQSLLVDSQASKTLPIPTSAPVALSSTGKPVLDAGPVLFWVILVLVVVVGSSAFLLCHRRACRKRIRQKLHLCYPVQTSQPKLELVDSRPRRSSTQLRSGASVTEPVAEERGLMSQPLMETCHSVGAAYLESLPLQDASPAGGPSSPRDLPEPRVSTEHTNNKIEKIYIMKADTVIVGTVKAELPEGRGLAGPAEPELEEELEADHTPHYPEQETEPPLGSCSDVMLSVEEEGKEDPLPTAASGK
Experimental: as §1

[5] = biological target: T5, HveA on transiently transfected cells (UniProt Q92956 39-283, limits assumed)
T5 construct: whole, on cells
T5 sequence (looked up): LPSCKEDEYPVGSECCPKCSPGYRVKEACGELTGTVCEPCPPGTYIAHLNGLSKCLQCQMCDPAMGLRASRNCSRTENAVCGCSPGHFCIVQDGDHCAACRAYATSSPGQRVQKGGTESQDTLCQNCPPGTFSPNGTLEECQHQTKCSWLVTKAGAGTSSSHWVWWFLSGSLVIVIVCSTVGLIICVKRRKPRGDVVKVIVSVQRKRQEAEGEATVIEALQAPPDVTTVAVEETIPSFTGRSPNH
Experimental: as §1

[6] = biological target: T6, CD27 on transiently transfected cells (UniProt P26842 20-260, limits assumed)
T6 construct: whole, on cells
T6 sequence (looked up): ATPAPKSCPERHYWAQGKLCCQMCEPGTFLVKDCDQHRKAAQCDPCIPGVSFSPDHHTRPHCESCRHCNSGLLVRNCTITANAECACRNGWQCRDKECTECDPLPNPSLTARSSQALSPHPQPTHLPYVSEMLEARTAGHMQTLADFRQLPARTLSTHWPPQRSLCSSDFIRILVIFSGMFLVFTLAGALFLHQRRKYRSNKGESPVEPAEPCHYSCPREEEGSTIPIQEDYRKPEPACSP
Experimental: as §1

[7] = biological target: T7, DR5 on transiently transfected cells (UniProt O14763 56-440, limits assumed)
T7 construct: whole, on cells
Experimental: as §1

Measured: binding result

B1: FLAG-tagged soluble form of TNF-gamma-beta (aa 72-251) (ligand)
chain: LKGQEFAPSHQQVYAPLRADGDKPRAHLTVVRQTPTQHFKNQFPALHWEHELGLAFTKNRMNYTNKFLLIPESGDYFIYSQVTFRGMTSECSEIRQAGRPNKPDSITVVITKVTDSYPEPTQLLMGTKSVCEVGSNWFQPIYLGAMFSLQEGDKLMVNVSDISLVDYTKEDKTFFGAFLL
notes: also called FLAG-TL1β; FLAG-TNF-gamma-beta; not shown: FLAG tag of the pFLAG-CMV-1 vector at the amino terminus
no binding: all assays above
